In patent EP4692114A1, “CALCITONIN ANALOGUE, AND DERIVATIVE THEREOF AND USE THEREOF” (Hangzhou Sciwind Biosciences Co., Ltd., priority 2023, dated 2024):
*1 amine or outer side, *2 acyl side, *3 side chain or, on linkers, in order; H or OH if unused. Primed or numbered codes have the meaning given here. The star is where a group is joined. C20 diacid = O=C(O)CCCCCCCCCCCCCCCCCCC(=O)*; C18 diacid = O=C(O)CCCCCCCCCCCCCCCCC(=O)*; γGlu = O=C(O)[C@H](CCC(=O)[*:2])N[*:1]; βAsp = O=C(O)[C@H](CC(=O)[*:2])N[*:1]; Inp′ = not defined here; Trx′ = not defined here; AEEA = NCCOCCOCC(=O)O

B1: calcitonin derivative M28 (peptide)
peptide: {C20 diacid-γGlu}-SSQLSTSVLGRLSQELHRLQDYPRTDVGSGSP-NH2
SMILES: CC(C)C[C@H](NC(=O)[C@H](CCCNC(=N)N)NC(=O)CNC(=O)[C@H](CC(C)C)NC(=O)[C@@H](NC(=O)[C@H](CO)NC(=O)[C@@H](NC(=O)[C@H](CO)NC(=O)[C@H](CC(C)C)NC(=O)[C@H](CCC(N)=O)NC(=O)[C@H](CO)NC(=O)[C@H](CO)NC(=O)CC[C@H](NC(=O)CCCCCCCCCCCCCCCCCCC(=O)O)C(=O)O)[C@@H](C)O)C(C)C)C(=O)N[C@@H](CO)C(=O)N[C@@H](CCC(N)=O)C(=O)N[C@@H](CCC(=O)O)C(=O)N[C@@H](CC(C)C)C(=O)N[C@@H](Cc1c[nH]cn1)C(=O)N[C@@H](CCCNC(=N)N)C(=O)N[C@@H](CC(C)C)C(=O)N[C@@H](CCC(N)=O)C(=O)N[C@@H](CC(=O)O)C(=O)N[C@@H](Cc1ccc(O)cc1)C(=O)N1CCC[C@H]1C(=O)N[C@@H](CCCNC(=N)N)C(=O)N[C@H](C(=O)N[C@@H](CC(=O)O)C(=O)N[C@H](C(=O)NCC(=O)N[C@@H](CO)C(=O)NCC(=O)N[C@@H](CO)C(=O)N1CCC[C@H]1C(N)=O)C(C)C)[C@@H](C)O
B2: calcitonin derivative M53 (peptide)
peptide: {C20 diacid-βAsp}-ASQLSTAVLGRLSEELHRLQDYPRTDVGSGSP-NH2
SMILES: CC(C)C[C@H](NC(=O)[C@H](CCCNC(=N)N)NC(=O)CNC(=O)[C@H](CC(C)C)NC(=O)[C@@H](NC(=O)[C@H](C)NC(=O)[C@@H](NC(=O)[C@H](CO)NC(=O)[C@H](CC(C)C)NC(=O)[C@H](CCC(N)=O)NC(=O)[C@H](CO)NC(=O)[C@H](C)NC(=O)C[C@H](NC(=O)CCCCCCCCCCCCCCCCCCC(=O)O)C(=O)O)[C@@H](C)O)C(C)C)C(=O)N[C@@H](CO)C(=O)N[C@@H](CCC(=O)O)C(=O)N[C@@H](CCC(=O)O)C(=O)N[C@@H](CC(C)C)C(=O)N[C@@H](Cc1c[nH]cn1)C(=O)N[C@@H](CCCNC(=N)N)C(=O)N[C@@H](CC(C)C)C(=O)N[C@@H](CCC(N)=O)C(=O)N[C@@H](CC(=O)O)C(=O)N[C@@H](Cc1ccc(O)cc1)C(=O)N1CCC[C@H]1C(=O)N[C@@H](CCCNC(=N)N)C(=O)N[C@H](C(=O)N[C@@H](CC(=O)O)C(=O)N[C@H](C(=O)NCC(=O)N[C@@H](CO)C(=O)NCC(=O)N[C@@H](CO)C(=O)N1CCC[C@H]1C(N)=O)C(C)C)[C@@H](C)O
B3: calcitonin derivative M63 (peptide)
peptide: {C20 diacid-γGlu-AEEA-AEEA-AEEA-AEEA}-ASQLSTAVLGRLSEELHRLQDYPRTDVGSGSP-NH2
SMILES: CC(C)C[C@H](NC(=O)[C@H](CCCNC(=N)N)NC(=O)CNC(=O)[C@H](CC(C)C)NC(=O)[C@@H](NC(=O)[C@H](C)NC(=O)[C@@H](NC(=O)[C@H](CO)NC(=O)[C@H](CC(C)C)NC(=O)[C@H](CCC(N)=O)NC(=O)[C@H](CO)NC(=O)[C@H](C)NC(=O)COCCOCCNC(=O)COCCOCCNC(=O)COCCOCCNC(=O)COCCOCCNC(=O)CC[C@H](NC(=O)CCCCCCCCCCCCCCCCCCC(=O)O)C(=O)O)[C@@H](C)O)C(C)C)C(=O)N[C@@H](CO)C(=O)N[C@@H](CCC(=O)O)C(=O)N[C@@H](CCC(=O)O)C(=O)N[C@@H](CC(C)C)C(=O)N[C@@H](Cc1c[nH]cn1)C(=O)N[C@@H](CCCNC(=N)N)C(=O)N[C@@H](CC(C)C)C(=O)N[C@@H](CCC(N)=O)C(=O)N[C@@H](CC(=O)O)C(=O)N[C@@H](Cc1ccc(O)cc1)C(=O)N1CCC[C@H]1C(=O)N[C@@H](CCCNC(=N)N)C(=O)N[C@H](C(=O)N[C@@H](CC(=O)O)C(=O)N[C@H](C(=O)NCC(=O)N[C@@H](CO)C(=O)NCC(=O)N[C@@H](CO)C(=O)N1CCC[C@H]1C(N)=O)C(C)C)[C@@H](C)O
B4: calcitonin derivative M29 (peptide)
peptide: {C20 diacid-γGlu}-ASQLSTSVLGRLSQELHRLQDYPRTDVGSGSP-NH2
SMILES: CC(C)C[C@H](NC(=O)[C@H](CCCNC(=N)N)NC(=O)CNC(=O)[C@H](CC(C)C)NC(=O)[C@@H](NC(=O)[C@H](CO)NC(=O)[C@@H](NC(=O)[C@H](CO)NC(=O)[C@H](CC(C)C)NC(=O)[C@H](CCC(N)=O)NC(=O)[C@H](CO)NC(=O)[C@H](C)NC(=O)CC[C@H](NC(=O)CCCCCCCCCCCCCCCCCCC(=O)O)C(=O)O)[C@@H](C)O)C(C)C)C(=O)N[C@@H](CO)C(=O)N[C@@H](CCC(N)=O)C(=O)N[C@@H](CCC(=O)O)C(=O)N[C@@H](CC(C)C)C(=O)N[C@@H](Cc1c[nH]cn1)C(=O)N[C@@H](CCCNC(=N)N)C(=O)N[C@@H](CC(C)C)C(=O)N[C@@H](CCC(N)=O)C(=O)N[C@@H](CC(=O)O)C(=O)N[C@@H](Cc1ccc(O)cc1)C(=O)N1CCC[C@H]1C(=O)N[C@@H](CCCNC(=N)N)C(=O)N[C@H](C(=O)N[C@@H](CC(=O)O)C(=O)N[C@H](C(=O)NCC(=O)N[C@@H](CO)C(=O)NCC(=O)N[C@@H](CO)C(=O)N1CCC[C@H]1C(N)=O)C(C)C)[C@@H](C)O
B5: calcitonin derivative M14 (peptide)
peptide: {C20 diacid-γGlu}-ASQLSTAVLGRLSQELHRLEEYPRTDVGSGSP-NH2
SMILES: CC(C)C[C@H](NC(=O)[C@H](CCCNC(=N)N)NC(=O)CNC(=O)[C@H](CC(C)C)NC(=O)[C@@H](NC(=O)[C@H](C)NC(=O)[C@@H](NC(=O)[C@H](CO)NC(=O)[C@H](CC(C)C)NC(=O)[C@H](CCC(N)=O)NC(=O)[C@H](CO)NC(=O)[C@H](C)NC(=O)CC[C@H](NC(=O)CCCCCCCCCCCCCCCCCCC(=O)O)C(=O)O)[C@@H](C)O)C(C)C)C(=O)N[C@@H](CO)C(=O)N[C@@H](CCC(N)=O)C(=O)N[C@@H](CCC(=O)O)C(=O)N[C@@H](CC(C)C)C(=O)N[C@@H](Cc1c[nH]cn1)C(=O)N[C@@H](CCCNC(=N)N)C(=O)N[C@@H](CC(C)C)C(=O)N[C@@H](CCC(=O)O)C(=O)N[C@@H](CCC(=O)O)C(=O)N[C@@H](Cc1ccc(O)cc1)C(=O)N1CCC[C@H]1C(=O)N[C@@H](CCCNC(=N)N)C(=O)N[C@H](C(=O)N[C@@H](CC(=O)O)C(=O)N[C@H](C(=O)NCC(=O)N[C@@H](CO)C(=O)NCC(=O)N[C@@H](CO)C(=O)N1CCC[C@H]1C(N)=O)C(C)C)[C@@H](C)O
B6: calcitonin derivative M13 (peptide)
peptide: {C20 diacid-γGlu}-ASQLSTAVLGRLSQELHRLEDYPRTDVGSGSP-NH2
SMILES: CC(C)C[C@H](NC(=O)[C@H](CCCNC(=N)N)NC(=O)CNC(=O)[C@H](CC(C)C)NC(=O)[C@@H](NC(=O)[C@H](C)NC(=O)[C@@H](NC(=O)[C@H](CO)NC(=O)[C@H](CC(C)C)NC(=O)[C@H](CCC(N)=O)NC(=O)[C@H](CO)NC(=O)[C@H](C)NC(=O)CC[C@H](NC(=O)CCCCCCCCCCCCCCCCCCC(=O)O)C(=O)O)[C@@H](C)O)C(C)C)C(=O)N[C@@H](CO)C(=O)N[C@@H](CCC(N)=O)C(=O)N[C@@H](CCC(=O)O)C(=O)N[C@@H](CC(C)C)C(=O)N[C@@H](Cc1c[nH]cn1)C(=O)N[C@@H](CCCNC(=N)N)C(=O)N[C@@H](CC(C)C)C(=O)N[C@@H](CCC(=O)O)C(=O)N[C@@H](CC(=O)O)C(=O)N[C@@H](Cc1ccc(O)cc1)C(=O)N1CCC[C@H]1C(=O)N[C@@H](CCCNC(=N)N)C(=O)N[C@H](C(=O)N[C@@H](CC(=O)O)C(=O)N[C@H](C(=O)NCC(=O)N[C@@H](CO)C(=O)NCC(=O)N[C@@H](CO)C(=O)N1CCC[C@H]1C(N)=O)C(C)C)[C@@H](C)O
B7: calcitonin derivative M15 (peptide)
peptide: {C20 diacid-γGlu}-ASQLSTAVLGRLSQELHRLQDYPRTQVGSGSP-NH2
SMILES: CC(C)C[C@H](NC(=O)[C@H](CCCNC(=N)N)NC(=O)CNC(=O)[C@H](CC(C)C)NC(=O)[C@@H](NC(=O)[C@H](C)NC(=O)[C@@H](NC(=O)[C@H](CO)NC(=O)[C@H](CC(C)C)NC(=O)[C@H](CCC(N)=O)NC(=O)[C@H](CO)NC(=O)[C@H](C)NC(=O)CC[C@H](NC(=O)CCCCCCCCCCCCCCCCCCC(=O)O)C(=O)O)[C@@H](C)O)C(C)C)C(=O)N[C@@H](CO)C(=O)N[C@@H](CCC(N)=O)C(=O)N[C@@H](CCC(=O)O)C(=O)N[C@@H](CC(C)C)C(=O)N[C@@H](Cc1c[nH]cn1)C(=O)N[C@@H](CCCNC(=N)N)C(=O)N[C@@H](CC(C)C)C(=O)N[C@@H](CCC(N)=O)C(=O)N[C@@H](CC(=O)O)C(=O)N[C@@H](Cc1ccc(O)cc1)C(=O)N1CCC[C@H]1C(=O)N[C@@H](CCCNC(=N)N)C(=O)N[C@H](C(=O)N[C@@H](CCC(N)=O)C(=O)N[C@H](C(=O)NCC(=O)N[C@@H](CO)C(=O)NCC(=O)N[C@@H](CO)C(=O)N1CCC[C@H]1C(N)=O)C(C)C)[C@@H](C)O

target: T1, human amylin receptor (AMY3) on CHO-K1/Gal5/AMY3 cells (human, UniProt P30988 25-474; O60896 24-148); assay: cell-based or functional assay
T1 sequence (looked up) 1: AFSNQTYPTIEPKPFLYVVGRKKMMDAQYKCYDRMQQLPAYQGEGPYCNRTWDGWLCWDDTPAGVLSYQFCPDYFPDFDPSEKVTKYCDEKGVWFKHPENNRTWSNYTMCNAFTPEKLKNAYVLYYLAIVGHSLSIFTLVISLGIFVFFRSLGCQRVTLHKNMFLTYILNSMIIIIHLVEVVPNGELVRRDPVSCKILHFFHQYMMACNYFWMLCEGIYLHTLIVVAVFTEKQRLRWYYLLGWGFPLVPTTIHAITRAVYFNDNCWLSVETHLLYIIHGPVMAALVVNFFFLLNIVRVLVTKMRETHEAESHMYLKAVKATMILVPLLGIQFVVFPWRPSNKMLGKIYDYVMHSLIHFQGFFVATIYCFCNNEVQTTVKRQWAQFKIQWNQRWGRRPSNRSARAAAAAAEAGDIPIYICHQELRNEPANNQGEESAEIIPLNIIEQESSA
T1 sequence (looked up) 2: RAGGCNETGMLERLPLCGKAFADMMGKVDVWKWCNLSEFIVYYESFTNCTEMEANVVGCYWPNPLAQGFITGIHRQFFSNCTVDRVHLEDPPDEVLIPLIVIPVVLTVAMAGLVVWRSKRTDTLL

| Binder | EC50/nM, CRE-luciferase in amylin receptor/CRE-luc CHO cells |
| --- | --- |
| B1 | 0.017 nM |
| {C20 diacid-Inp′}-ASQLSTAVLGRLSDELHRLQDYPRTDVGSGSP-NH2 [calcitonin derivative M47] | 0.082 nM |
| B2 | 0.017 nM |
| {C18 diacid-Trx′}-ASQLSTAVLGRLSDELHRLQDYPRTDVGSGSP-NH2 (reading uncertain) [calcitonin derivative M46] | 0.119 nM |
| B3 | 0.037 nM |
| B4 | 0.017 nM |
| B5 | 0.017 nM |
| {C20 diacid-Inp′-AEEA-AEEA}-ASQLSTAVLGRLSEELHRLQDYPRTDVGSGSP-NH2 [calcitonin derivative M62] | 0.016 nM |
| B6 | 0.017 nM |
| B7 | 0.016 nM |
